From article PMC10204484

Target: anti-DENV antibody with the 3Cam2 variable region and the LALA Fc variant (human)

mouse C1q (from UniProt P98086 23-245; P14106 26-253; Q02105 30-246) (complex)
C3b ELISA (complement activation) on plate-immobilised antibody incubated with AG129 mouse serum; absorbance ratio versus the well without antibody immobilization: 1.5 fold
